From US8440629B2, “Cyclic receptor-associated protein (RAP) peptides” (Raptor Pharmaceuticals Inc., priority 2007, dated 2013)

What was measured:
Experiment in all cases: Solid phase binding assay, LRP2 CR89 mutant
LRP2 CR89 V1047D (YDWR) = biological target: T1, LRP2 CR89 V1047D (YDWR) (Homo sapiens, UniProt P98164, V1048D)
T1 construct: two CR pairs from LRP2 (CR89, CR3435); made in house; host or cells: E. coli BL21(DE3) CodonPlus-RIPL, pET30(+)a
T1 sequence (P98164 1022-1105 V1048D limits assumed): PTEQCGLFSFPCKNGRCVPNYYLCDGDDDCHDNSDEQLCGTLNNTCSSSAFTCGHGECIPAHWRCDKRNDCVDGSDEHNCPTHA
Source text: (§1) Each amplified fragment was sequentially digested with BamHI and HindIII and then ligated into similarly digested pET30(+)a. The resulting plasmids encode proteins consisting of N-terminal hexahistidine and S-peptides fused to the CR fragment. Ligation reactions were transformed into XL-Blue MRF′ (Stratagene) by electroporation and plasmids isolated from single colonies. Three mutations, […], V1047D and R1088D, were introduced into the LRP2 CR89 expression plasmid both singly and in combination using Stratagene QuikChange II XL reagents and the primers: […]
(§2) Purified, refolded CR protein (1 μg) was bound to Nunc Maxisorp™ 96-well plates in TBS pH 8 supplemented with 5 mM CaCl2 (TBSC) overnight at 4° C. Wells were washed with TBSC and then blocked with TBSC containing 2% bovine serum albumin (BSA). RAP ligands were then incubated with the immobilized receptor at a range of concentrations for 2 hours in the above blocking buffer supplemented with 0.05% Tween-20 at room temperature. Control wells contained no added ligand. As an additional control, to determine whether the absence of calcium affected binding, 10 mM EGTA was included in the incubation medium for some samples. Wells were washed with TBSTC and bound ligands detected with polyclonal anti-RAP (BP41/42, 1:1,000, BioMarin). Excess primary antibody was removed and wells washed before incubation with the secondary antibody, HRP-conjugated goat anti rabbit IgG (Bio-Rad). After washing, TMB substrate solutions (Bio-Rad) were added to detect HRP. Color development was stopped with 1N HCl. Absorption at 450 nm was measured with a microplate spectrophotometer (Molecular Devices). Data were plotted and Kd values derived by non-linear regression with the assumption of single-site binding (GraphPad Prism).
(§3) One premise of this work was that amino acids at A, C, A′ and C′ within the calcium-binding loops of a CR pair were key determinants of binding affinity for RAP and would be similarly important for binding of RAP variants. To test this idea, mutant LRP2 CR89 were prepared in which the native, non-canonical residues at these positions were sequentially substituted with the non-native, canonical residues. As defined above, the A, C, A′, C′ string for LRP2 CR89 is YVWR. Mutants included LRP2 CR89 Y1042W (WVWR), LRP2 CR89 V1047D (YDWR), LRP2 CR89 R1088D (YVWD), LRP2 CR89 V1047D R1088D (YDWD), LRP2 CR89 Y1042W V1047D R1088D (WDWD), LRP2 CR89 Y1042W V1047D (WDWR), LRP2 CR89 Y1042W R1088D (WVWD). Binding to both RAP d3 and MegaRAP1 d3 were measured for each LRP2 CR89 mutant by solid-phase assay. Only the YVWD mutant retained significant binding to MegaRAP1 d3, with an approximate 2-fold loss of affinity relative to LRP2 CR89 (FIG. 6 and Table 3). […] The A′ position in LRP2 CR89 is a tryptophan, the canonical residue for wild-type RAP d3 binding, and was not mutated in our studies.

[1] = biological target: T2, LRP2 CR89 Y1042W V1047D (WDWR) (Homo sapiens, UniProt P98164, V1048D/Y1043W)
T2 construct: two CR pairs from LRP2 (CR89, CR3435); made in house; host or cells: E. coli BL21(DE3) CodonPlus-RIPL, pET30(+)a
T2 sequence (P98164 1025-1102 Y1043W/V1048D): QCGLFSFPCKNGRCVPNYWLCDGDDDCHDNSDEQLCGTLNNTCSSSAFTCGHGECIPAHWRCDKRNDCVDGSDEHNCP
Source text: as §1, §2, §3

[2] = biological target: T3, LRP2 CR89 V1047D R1088D (YDWD) (Homo sapiens, UniProt P98164, R1089D/V1048D)
T3 construct: two CR pairs from LRP2 (CR89, CR3435); made in house; host or cells: E. coli BL21(DE3) CodonPlus-RIPL, pET30(+)a
T3 sequence (P98164 1022-1105 V1048D/R1089D limits assumed): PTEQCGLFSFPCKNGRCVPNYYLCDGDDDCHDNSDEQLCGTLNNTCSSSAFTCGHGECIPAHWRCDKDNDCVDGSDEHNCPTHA
Source text: as §1, §2, §3

LRP2 CR89 R1088D (YVWD) = biological target: T4, LRP2 CR89 R1088D (YVWD) (Homo sapiens, UniProt P98164, R1089D)
T4 construct: two CR pairs from LRP2 (CR89, CR3435); made in house; host or cells: E. coli BL21(DE3) CodonPlus-RIPL, pET30(+)a
T4 sequence (P98164 1022-1105 R1089D limits assumed): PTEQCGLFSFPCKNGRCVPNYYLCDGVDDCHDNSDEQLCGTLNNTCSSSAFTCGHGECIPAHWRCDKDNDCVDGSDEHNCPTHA
Source text: as §1, §2, §3

LRP2 CR89 Y1042W (WVWR) = biological target: T5, LRP2 CR89 Y1042W (WVWR) (Homo sapiens, UniProt P98164, Y1043W)
T5 construct: two CR pairs from LRP2 (CR89, CR3435); made in house; host or cells: E. coli BL21(DE3) CodonPlus-RIPL, pET30(+)a
T5 sequence (P98164 1025-1102 Y1043W): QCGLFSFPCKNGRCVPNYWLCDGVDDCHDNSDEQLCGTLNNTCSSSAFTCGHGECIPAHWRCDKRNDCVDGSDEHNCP
Source text: as §1, §2, §3

binding (in words) (LRP2 CR89 V1047D (YDWR)): failed to bind measurably | binding (in words) [1]: failed to bind measurably | binding (in words) [2]: failed to bind measurably | loss of affinity relative to LRP2 CR89 (LRP2 CR89 R1088D (YVWD)): ~2 fold | binding (in words) (LRP2 CR89 Y1042W (WVWR)): prevent binding
B1: MegaRAP1 d3: d3 of RAP variant selected on LRP2 CR89: S213T, E217K, H249Y, E251K, K256A, K270E (SEQ ID NO: 93) (protein, listed as Homo sapiens)
chain: LDRLRRVSHQGYSTEAEFEEPRVIDLWDLEQSANLTDKELEAFREELKHFKAKIEAHNHYQKQLEIAHEDLRHAESVGDGERVSRSREKHALLEGRTKELGYTVKKHLQDLSGRISRAR
